Legend:
activated CD8+ T cells [1] = assay: C3aR and C5aR antagonists in vitro blockade, IL-10 intracellular staining; type: cell-based, mouse; settings: 10 μmol/L of each antagonist, 6 days; FIG. 6J
Experimental: C3aR and C5aR Antagonists In Vitro Blockade: Mouse CD8+ T cells from lymph nodes were enriched using a negative selection kit (Stemcell Technologies; Cat #19853) and activated by plate-bound anti-CD3 (2 μg/mL) and anti-CD28 (1 μg/mL) antibodies for 72 hours. The activated CD8+ T cells were then cultured in complete medium alone (control), 10 μmol/L SB290157 (C3aR antagonist, C3aRA), 10 μmol/L PMX205 (C5aR antagonist, C5aRA), or a combination of 10 μmol/L SB290157 and 10 μmol/L PMX205 for 6 days. The IL10 expression was determined by intracellular staining.

[2] = cancer patients; cited from earlier work
B16F10 cells = assay: PD-L1 expression in tumor cells after IL-10 stimulation; type: cell-based, mouse; settings: 500 U/mL IL-10 for 5 days; FIG. 7E
Experimental: (§1) B16F10 melanoma cells (2×10^5/mouse) were subcutaneously inoculated into wild-type (WT) and C3−/− mice. […] T cells from lymph nodes of naïve mice were activated by incubation with 3 μg/mL anti-CD3/CD28 antibodies for 48 hours with or without 500 U/mL IL-10 and analyzed for PD-1 expression. FIGS. 7C-D show PD-L1 expression on tumor cells developed in WT and C3−/− mice. Bl6F10 melanoma cells (2×10^5/mouse) or E0771 breast cancer cells (1×10^6/mouse) were subcutaneously inoculated into WT and C3−/− mice. PD-L1 expression in CD45-B16 tumor cells (FIG. 7C) and CD45-E0771 cells (FIG. 7D) was measured by flow cytometry at day 12 and day 19, respectively. […] B16F10 cells were cultured with or without 500 U/mL IL-10 for 5 days. PD-L1 expression was analyzed by flow cytometry. […] B16F10 cells were transduced with control virus or single-guide RNA (sgRNA)—targeting PD-L1 virus and selected with puromycin to generate a stable PD-L1-silenced polyclonal cell line. […] Control or PD-L1-silenced B16F10 melanoma cells (4×10^5/mouse) were subcutaneously inoculated into C3−/− and C3−/− Tiger mice. GFP expression in CD3+CD8+ TILs was analyzed by flow cytometry. […] Tumor development was monitored every day starting from day 7 after implantation (n=7, 7, 9, and 8 mice, respectively). […] Significance was determined in FIG. 7H and FIG. 7I by Student t test.*, P≤0.05; **, P≤0.01.

[3] = test system: Human TILs from lung cancer patients; assay: T cell exhaustion markers on CD8+ TILs after IL-10 culture, flow cytometry; type: cell-based; settings: IL-2 plus IL-10 versus IL-2, 21 days culture; FIG. 10
Experimental: T cells were activated by anti-CD3/CD28 antibodies for 24 hrs. The surface expression of PD-1, LAG-3 and TIM-3 was analyzed by flow cytometry. FACS profiles are representative of three patients.

[4] = test system: CD8+ TILs from human lung tumors; assay: mRNA expression profiling (microarray) of expanded CD8+ TILs; type: cell-based; settings: IL-10/IL-2-cultured versus IL-2-cultured CD8+ TILs
Experimental: Microarray Data Analysis: TILs from human lung tumors were in vitro—expanded for 20 days with 6,000 U/mL rIL2 and/or 100 U/mL rIL10. The expanded TILs were activated by incubation in 3 μg/mL anti-CD3/CD28 antibodies for 6 hours. The CD8+ TILs were enriched by negative selection using a kit (Stemcell Technologies). RNA was extracted using TRIzol reagent (Life Technologies) according to the instructions. Microarray analyses were performed using human U133A 2.0 arrays by the Duke University microarray facility. Raw intensities from the CEL files were analyzed using PartekGenomics Suite (Partek Incorporated) with standard background correction to generate an RMA (robust multiarray average intensity) on a log 2 scale for each probe set. Probe sets were filtered for “present” detection in two or more arrays, and the interquartile intensity range was >0.5. The filtered RMA intensities were then analyzed for differential expression using the advanced ANOVA, and differentially expressed genes were generated with/without FDR-adjusted P values using the Benjamini-Hochberg method.

human CD4+ T cells = assay: Impact of IL-10 on effector cytokine production in human CD4+ T cells; type: cell-based; settings: 100 U/ml rIL-2 plus 500 U/ml rIL-10 versus rIL-2, 48 hrs; FIG. 9D
Experimental: (§2) B16F10 melanoma cells (2×10^5/mouse) were subcutaneously inoculated into WT and C3−/− mice. The draining lymph nodes and tumors were dissected and treated with collagenase and DNase to obtain single cell suspensions. Leukocytes were pre-gated on CD45 positive cells. FIG. 9A show the CD11b and GR1expression in leukocytes from dLNs as analyzed by flow cytometry. […] WT and C3−/− mice were subcutaneously inoculated with B16F10 cells (2×10^5/mouse). IFNγ- and TNFα-producing CD4+ TILs were analyzed by flow cytometry (n=4 mice per group) at day 12 after tumor inoculation. […] CD4+ T cells were enriched from PBMCs of healthy donors and activated by anti-CD3/CD28 antibodies in vitro for 48 hrs. The activated CD4+ T cells were then cultured with 100 U/ml rIL-2 or 100 U/ml rIL-2 plus 500 U/ml rIL-10 for 48 hrs. The cells were activated using a Cell Activation Cocktail (Biolegend) for 6 hours before intracellular IFNγ and TNFα staining. The expression of IFNγ and TNFα was analyzed by flow cytometry (n=3). […] Mouse CD4+ T cells were enriched from the spleens of naïve mice using a negative selection kit and activated by anti-CD3/CD28 antibodies for 48 hours in vitro. The activated CD4+ T cells were then cultured with 100 U/ml rIL-2 or 100 U/ml rIL-2 plus 500 U/ml rIL-10 for 48 hrs. […] The expression of IFNγ and TNFα was analyzed by flow cytometry (n=3). […]

mouse CD4+ T cells = assay: Impact of IL-10 on effector cytokine production in mouse CD4+ T cells; type: cell-based; settings: 100 U/ml rIL-2 plus 500 U/ml rIL-10 versus rIL-2, 48 hrs; FIG. 9E
Experimental: as §2

[5] = test system: TILs from human lung tumors; assay: In vitro expansion of human TILs cultured with IL-2 and/or IL-10; type: cell-based; settings: FIG. 5A
Experimental: (§3) The plates were placed in a humidified 37° C. incubator with 5% CO2.
as §3

activated CD8+ T cells [6] = assay: PD-1 expression on CD8+ T cells activated with anti-CD3/CD28 in the presence of IL-10; type: cell-based, mouse; settings: 500 U/mL IL-10, 48 hours, 3 μg/mL anti-CD3/CD28; FIG. 7B
Experimental: as §1

Molecule: NC(N)=NCCC[C@H](NC(=O)COCC(c1ccccc1)c1ccccc1)C(=O)O [SB 290157]
- IL-10 expression in activated CD8+ T cells (activated CD8+ T cells [1]): slightly increased IL-10 expression

Molecule: Pegylated IL-10: Pegylated IL-10 given to cancer patients
- adverse effect profile [2]: manageable adverse effect profile

Molecule: hydrocinnamate-(L-ornithine-proline-D-cyclohexylalanine-tryptophan-arginine) [PMX205]
- IL-10 expression in activated CD8+ T cells (activated CD8+ T cells [1]): slightly increased IL-10 expression

B1: IL-10: a cytokine with multiple, pleotropic effects in immunoregulation and inflammation (protein, UniProt P22301 19-178, looked up)
Interleukin-10: SPGQGTQSENSCTHFPGNLPNMLRDLRDAFSRVKTFFQMKDQLDNLLLKESLLEDFKGYLGCQALSEMIQFYLEEVMPQAENQDPDIKAHVNSLGENLKTLRLRLRRCHRFLPCENKSKAVEQVKNAFNKLQEKGIYKAMSEFDIFINYIEAYMTMKIRN
- PD-L1 expression on tumor cells (B16F10 cells): not changed
- expression of T-cell exhaustion markers (PD-1, LAG3, TIM3) [3]: not altered
- expression of genes of signaling pathways (TCR signaling, Notch signaling, cell cycle, killing activity) ([4]; 20 days, FIG. 5F-I): upregulated genes related to several signaling pathways
- expression of chemokine genes ([4]; FIG. 5J): variable depending on the specific chemokine
- effector status (IFNγ and TNFα) of human CD4+ T cells (human CD4+ T cells): did not obviously alter the effector status
- effector status (IFNγ and TNFα) of mouse CD4+ T cells (mouse CD4+ T cells): did not obviously alter the effector status
- proliferative capacity of TILs ([5]; IL-10 added with IL-2: 6,000 U/mL rIL-2 plus 100 U/mL rIL-10, TILs from patients with lung cancer): robustly enhanced the proliferative capacity of TILs
- proliferative capacity of TILs (entry into the cell cycle) ([5]; IL-10 alone, 100 U/mL rIL-10): did not drive TILs into the cell cycle
- PD-1 expression on activated CD8+ T cells (activated CD8+ T cells [6]): did not modulate PD-1 expression
